Substitutions are numbered along the chain they refer to. Each block holds one molecule with its values, some of them ahead of it.
Assays:
[1] = tested on: 336(P1′-P3′)562 factor VIII mutant (procofactor)
[2] = tested on: 336(P4-P2)562 factor VIII mutant (procofactor)
[3] = tested on: 336(P4-P3′)562 factor VIII mutant (procofactor)
[4] = tested on: 562(P4-P2)336 factor VIII mutant (procofactor)
[5] = tested on: 562(P4-P3′)336 factor VIII mutant (procofactor)
[6] = biological target: T1, human activated protein C (human, UniProt P04070 43-197; P04070 212-461); assay: cell-based or functional assay
T1 sequence (P04070 43-197, chain 1 of 2): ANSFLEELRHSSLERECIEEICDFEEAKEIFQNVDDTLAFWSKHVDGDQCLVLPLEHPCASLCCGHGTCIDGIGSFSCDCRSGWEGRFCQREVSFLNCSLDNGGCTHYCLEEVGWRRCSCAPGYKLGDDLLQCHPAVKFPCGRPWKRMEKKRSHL
T1 sequence (P04070 212-461, chain 2 of 2): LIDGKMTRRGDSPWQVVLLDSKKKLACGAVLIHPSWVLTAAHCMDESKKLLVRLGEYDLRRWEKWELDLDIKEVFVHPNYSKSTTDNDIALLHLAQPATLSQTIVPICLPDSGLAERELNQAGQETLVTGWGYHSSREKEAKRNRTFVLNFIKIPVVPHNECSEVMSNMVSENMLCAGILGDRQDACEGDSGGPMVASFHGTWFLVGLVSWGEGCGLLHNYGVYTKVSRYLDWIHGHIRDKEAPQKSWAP

[7] = biological target: T1, human activated protein C; assay: cell-based or functional assay; remark: listed apart in the source
[8] = biological target: T1, human activated protein C; assay: Ki from competitive inhibition of APC cleavage against the literature Km (102 nM) of WT factor VIIIa for APC
Experimental: The amount of the A1336 (nM) generated over time was determined based on the amount of WT A1 substrate, calculated by subtracting the amount of the mutant A1 from the total amount of A1 subunit.
The rationale for this approach was that if proteinase binding to the mutant were unaffected, then it would efficiently compete with the WT substrate. Furthermore, since the mutant remains essentially uncleaved at the A1 site during a truncated time course, it would serve as an inhibitor of detected cleavage of the WT substrate.

[9] = biological target: T1, human activated protein C; assay: competitive inhibition of APC-catalysed cleavage of WT factor VIIIa A1 subunit by the mutant (0-200 nM); Western blot densitometry, fit to competitive inhibition model with Km 102 nM
Experimental: Aliquots were taken at various time points (0-20 min) and subjected to SDS-PAGE. […] The amount of the A1336 (nM) generated over time was determined based on the amount of WT A1 substrate, calculated by subtracting the amount of the mutant A1 from the total amount of A1 subunit.
Factor VIII (130 nM) was activated by addition of 10-20 nM thrombin in 20 mM HEPES pH 7.2, 100 mM NaCl, 5 mM CaCl₂, 0.01 % Tween 20, and 100 μg/ml bovine serum albumin (Buffer A) and reactions were run at 37° C. Thrombin was inhibited after 2 min by the addition of 10-20 U/ml hirudin, and the resultant factor VIIIa was reacted with APC (2 or 40 nM) in the presence of 100 μM phospholipid vesicles. Aliquots were removed at the indicated times to assess residual factor VIIIa activity by factor Xa generation assay and proteolysis of subunits by Western blotting.

Molecule: α-thrombin
- rates of cleavage of factor VIII and the generation of factor VIIIa subunits [1]: indistinguishable from that for WT factor VIII
- rates of cleavage of factor VIII and the generation of factor VIIIa subunits [2]: indistinguishable from that for WT factor VIII
- rates of cleavage of factor VIII and the generation of factor VIIIa subunits [3]: indistinguishable from that for WT factor VIII
- rates of cleavage of factor VIII and the generation of factor VIIIa subunits [4]: indistinguishable from that for WT factor VIII
- rates of cleavage of factor VIII and the generation of factor VIIIa subunits [5]: indistinguishable from that for WT factor VIII

- Inactivation (nM FVIIIa/min/nM APC) [6]: 5.4 nM FVIIIa/min/nM APC
B1: WT factor VIIIa (B-domainless recombinant human factor VIII activated by thrombin) (other)
chain 1: ATRRYYLGAVELSWDYMQSDLGELPVDARFPPRVPKSFPFNTSVVYKKTLFVEFTVHLFNIAKPRPPWMGLLGPTIQAEVYDTVVITLKNMASHPVSLHAVGVSYWKASEGAEYDDQTSQREKEDDKVFPGGSHTYVWQVLKENGPMASDPLCLTYSYLSHVDLVKDLNSGLIGALLVCREGSLAKEKTQTLHKFILLFAVFDEGKSWHSETKNSLMQDRDAASARAWPKMHTVNGYVNRSLPGLIGCHRKSVYWHVIGMGTTPEVHSIFLEGHTFLVRNHRQASLEISPITFLTAQTLLMDLGQFLLFCHISSHQHDGMEAYVKVDSCPEEPQLRMKNNEEAEDYDDDLTDSEMDVVRFDDDNSPSFIQIR
chain 2: SVAKKHPKTWVHYIAAEEEDWDYAPLVLAPDDRSYKSQYLNNGPQRIGRKYKKVRFMAYTDETFKTREAIQHESGILGPLLYGEVGDTLLIIFKNQASRPYNIYPHGITDVRPLYSRRLPKGVKHLKDFPILPGEIFKYKWTVTVEDGPTKSDPRCLTRYYSSFVNMERDLASGLIGPLLICYKESVDQRGNQIMSDKRNVILFSVFDENRSWYLTENIQRFLPNPAGVQLEDPEFQASNIMHSINGYVFDSLQLSVCLHEVAYWYILSIGAQTDFLSVFFSGYTFKHKMVYEDTLTLFPFSGETVFMSMENPGLWILGCHNSDFRNRGMTALLKVSSCDKNTGDYYEDSYEDISAYLLSKNNAIEPR
chain 3: SFQKKTRHYFIAAVERLWDYGMSSSPHVLRNRAQSGSVPQFKKVVFQEFTDGSFTQPLYRGELNEHLGLLGPYIRAEVEDNIMVTFRNQASRPYSFYSSLISYEEDQRQGAEPRKNFVKPNETKTYFWKVQHHMAPTKDEFDCKAWAYFSDVDLEKDVHSGLIGPLLVCHTNTLNPAHGRQVTVQEFALFFTIFDETKSWYFTENMERNCRAPCNIQMEDPTFKENYRFHAINGYIMDTLPGLVMAQDQRIRWYLLSMGSNENIHSIHFSGHVFTVRKKEEYKMALYNLYPGVFETVEMLPSKAGIWRVECLIGEHLHAGMSTLFLVYSNKCQTPLGMASGHIRDFQITASGQYGQWAPKLARLHYSGSINAWSTKEPFSWIKVDLLAPMIIHGIKTQGARQKFSSLYISQFIIMYSLDGKKWQTYRGNSTGTLMVFFGNVDSSGIKHNIFNPPIIARYIRLHPTHYSIRSTLRMELMGCDLNSCSMPLGMESKAISDAQITASSYFTNMFATWSPSKARLHLQGRSNAWRPQVNNPKEWLQVDFQKTMKVTGVTTQGVKSLLTSMYVKEFLISSSQDGHQWTLFFQNGKVKVFQGNQDSFTPVVNSLDPPLLTRYLRIHPQSWVHQIALRMEVLGCEAQDLY

- fold increase of rate of generation of the A2c fragment compared with WT factor VIII [7]: 6 fold
B2: 562(P4-P2)336 factor VIII mutant (procofactor) (other)
chain 1: ATRRYYLGAVELSWDYMQSDLGELPVDARFPPRVPKSFPFNTSVVYKKTLFVEFTVHLFNIAKPRPPWMGLLGPTIQAEVYDTVVITLKNMASHPVSLHAVGVSYWKASEGAEYDDQTSQREKEDDKVFPGGSHTYVWQVLKENGPMASDPLCLTYSYLSHVDLVKDLNSGLIGALLVCREGSLAKEKTQTLHKFILLFAVFDEGKSWHSETKNSLMQDRDAASARAWPKMHTVNGYVNRSLPGLIGCHRKSVYWHVIGMGTTPEVHSIFLEGHTFLVRNHRQASLEISPITFLTAQTLLMDLGQFLLFCHISSHQHDGMEAYVKVDSCPEEPQLRMKNNEEAEDYDDDLTDSEMDVVRFDDDNSPSFIQIRSVAKKHPKTWVHYIAAEEEDWDYAPLVLAPDDRSYKSQYLNNGPQRIGRKYKKVRFMAYTDETFKTREAIQHESGILGPLLYGEVGDTLLIIFKNQASRPYNIYPHGITDVRPLYSRRLPKGVKHLKDFPILPGEIFKYKWTVTVEDGPTKSDPRCLTRYYSSFVNMERDLASGLIGPLLICYKESPQLRGNQIMSDKRNVILFSVFDENRSWYLTENIQRFLPNPAGVQLEDPEFQASNIMHSINGYVFDSLQLSVCLHEVAYWYILSIGAQTDFLSVFFSGYTFKHKMVYEDTLTLFPFSGETVFMSMENPGLWILGCHNSDFRNRGMTALLKVSSCDKNTGDYYEDSYEDISAYLLSKNNAIEPR
chain 2: B1 chain 3

- fold increase of rate of generation of the A2c fragment compared with WT factor VIII [7]: 27 fold
B3: 562(P4-P3′)336 factor VIII mutant (procofactor) (other)
chain 1: B2 chain 1 with G563M, N564K, Q565N
chain 2: B1 chain 3

- fold reduction of inactivation rate compared to WT factor VIIIa [7]: 6 to 11 fold
- Inactivation (nM FVIIIa/min/nM APC) [6]: 0.5 nM FVIIIa/min/nM APC
B4: 336(P4-P2)562 factor VIIIa mutant (other)
chain 1: B1 chain 1 with P333V, Q334D, L335Q
chain 2: B1 chain 2
chain 3: B1 chain 3

- fold reduction of inactivation rate compared to WT factor VIIIa [7]: 6 to 11 fold
- Inactivation (nM FVIIIa/min/nM APC) [6]: 0.9 nM FVIIIa/min/nM APC
B5: 336(P1′-P3′)562 factor VIIIa mutant (other)
chain 1: B1 chain 1 with M337G, K338N, N339Q
chain 2: B1 chain 2
chain 3: B1 chain 3

- Inactivation (nM FVIIIa/min/nM APC) [6]: 0.8 nM FVIIIa/min/nM APC
- fold Ki less than the Km for WT substrate [8]: ~3 fold
- Ki [9]: 36 nM
B6: 336(P4-P3′)562 factor VIIIa mutant (other)
chain 1: B1 chain 1 with P333V, Q334D, L335Q, M337G, K338N, N339Q
chain 2: B1 chain 2
chain 3: B1 chain 3
notes: residues 333-339 replaced by residues 559-565; also called fully substituted P4-P3′ mutant

Reference: patent US20090118185A1 (UNIVERSITY OF ROCHESTER, published 2009)
